# Assay results as given in publication PMC10364083, “Dimerization of European Robin Cryptochrome 4a” (The Journal of Physical Chemistry. B, 2023).
# Several values for one entry are separate records, joined by “and”; a condition that tells them apart may be missing. Equal entries are not always repeated.
# How the values were obtained:
# ErCry4a = target: T1, ErCry4a (Erithacus rubecula, UniProt A0A2I4SZI9); experiment: native mass spectrometry of holoprotein; type: binding; conditions: co-purified non-covalently bound FAD; 200 mM ammonium acetate, pH 8; monomer and dimer
# T1 construct: full-length wild type (CTT residues 498-527), N-terminal 10x His-tag kept for native MS, expressed in E. coli; monomer with minor disulfide-linked dimer
# T1 sequence (A0A2I4SZI9 1-527): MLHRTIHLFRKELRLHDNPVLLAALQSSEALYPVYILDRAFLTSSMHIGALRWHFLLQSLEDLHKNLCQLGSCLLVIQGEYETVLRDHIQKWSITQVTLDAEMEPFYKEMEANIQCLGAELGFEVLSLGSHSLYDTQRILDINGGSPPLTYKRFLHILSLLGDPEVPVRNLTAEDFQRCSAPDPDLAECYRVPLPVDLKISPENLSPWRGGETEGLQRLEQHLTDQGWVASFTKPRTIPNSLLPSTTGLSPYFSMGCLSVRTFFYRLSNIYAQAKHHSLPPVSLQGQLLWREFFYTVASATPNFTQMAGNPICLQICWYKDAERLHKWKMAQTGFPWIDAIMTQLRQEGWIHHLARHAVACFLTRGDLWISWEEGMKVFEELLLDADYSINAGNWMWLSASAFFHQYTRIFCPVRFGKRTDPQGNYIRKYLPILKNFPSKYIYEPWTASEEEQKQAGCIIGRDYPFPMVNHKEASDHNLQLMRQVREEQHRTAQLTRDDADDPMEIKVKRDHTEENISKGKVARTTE
# [1] = target: ErCry4a C317A mutant (European robin (Erithacus rubecula)); experiment: native MS; 200 mM ammonium acetate, pH 8; nanoflow electrospray, Q Exactive, positive ion mode; micromolar protein concentrations; His-tagged proteins; WT sample of Figure 3A shipped with 10 mM BME
# [2] = target: ErCry4a C412A + C317A mutant (European robin (Erithacus rubecula)); experiment: as above
# [3] = target: ErCry4a C412A mutant (European robin (Erithacus rubecula)); experiment: as above
# [4] = target: European robin cryptochrome 4a (Erithacus rubecula Cry4a), wild type, with N-terminal 10x His-tag (European robin (Erithacus rubecula)); experiment: as above
# [5] = target: European robin cryptochrome 4a (Erithacus rubecula Cry4a), wild type, with N-terminal 10x His-tag (European robin (Erithacus rubecula)); experiment: as above; remark: listed apart in the source
# [6] = target: European robin cryptochrome 4a (Erithacus rubecula Cry4a), wild type, with N-terminal 10x His-tag (European robin (Erithacus rubecula)); experiment: mass photometry; 44 nM ErCry4a WT in 200 mM ammonium acetate, pH 8.3; sample shipped with 2 mM DTT; ONE-MP instrument
molecule,measurement,setting,value
Cc1cc2nc3c(=O)[nH]c(=O)nc-3n(C[C@H](O)[C@H](O)[C@H](O)COP(=O)(O)OP(=O)(O)OC[C@H]3O[C@@H](n4cnc5c(N)ncnc54)[C@H](O)[C@@H]3O)c2cc1C [FAD],native mass spectrometry of holoprotein,ErCry4a,the ErCry4a dimers bind FAD and have native MS charge-state distributions
ErCry4a C317A mutant (natural protein),stoichiometry N,[1],2 and 3
ErCry4a C412A + C317A mutant (natural protein),stoichiometry N,[2],2 and 3
ErCry4a C412A mutant (natural protein),stoichiometry N,[3],2 and 3
"European robin cryptochrome 4a (Erithacus rubecula Cry4a), wild type, with N-terminal 10x His-tag (natural protein)",stoichiometry N,[4],3
same,stoichiometry N,[5],2
same,percent of counts in the dimer peak,[6],11%
same,stoichiometry N,[6],2
